Consider 55 substances from the supplement of paper PMC12042874.

± gives the uncertainty stated by the source.

This series can be described thus: amyloid nucleation score (Sup35N fusion, yeast selection) (log enrichment); library NNK3; higher = more nucleation; inactive = no reads after selection. The method in brief:
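Plasmid inserts were Illumina-sequenced at input and output from psi-negative yeast expressing Sup35N fused to peptides of 20 random codons. The yeast were induced with 100 μM copper sulfate for 24 hours and grown 7 days at 30°C on medium lacking adenine and uracil, and sequences with under 100 input reads were excluded. Nucleation score is the DiMSum log enrichment of output over input reads, centred on the mode score of non-aggregating sequences.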
The substance SQLVVLCCCRSPSFYCGVL came in with an amyloid nucleation score of 1.32 ± 0.17. As for SQVGWG, the amyloid nucleation score result was “inactive”.

SQYTRCSVYIVW registered an amyloid nucleation score of 1.43 ± 0.079. Take SRCFNSGTYPEICVHRVLKV: the amyloid nucleation score result was “inactive”. Next, SRCRMIGMVISWNG: “inactive”; SRDFVKYISEERS: “inactive”; SREFSGCNNV: “inactive”. Next, SRFLKCF: “inactive”; SRFQWLWKMCSNDG: “inactive”. Next, SRFYSDTQPTCGWKRVESRG: -0.897 ± 2.5; SRHRNYHFCRILQCGFERSW: -0.526 ± 0.93. In the case of SRIKD, the amyloid nucleation score result was “inactive”. For the substance SRKCWAHKSIDVEVATSSAK, the amyloid nucleation score result was “inactive”. Next, SRKIFEGTIRIRLTDSASFS: “inactive”; SRLDALLMKLCFVICLRILK: “inactive”.

As to SRNPEAEHRIIMRAQSTGYF, the amyloid nucleation score entry is “inactive”. As to SRSSWGPSAIPYYKKLFMLF, the amyloid nucleation score result was “inactive”. Next, SRTVKSRGSAQQDCGRVLRD: “inactive”. Next, SRVILL: “inactive”; SRYMNRR: “inactive”; SSACYTVLPGKAPTPAYPLL: “inactive”. Take SSARYPAGLIVLHWLGCLKA: the amyloid nucleation score entry was “inactive”.

Take SSCRTRC: the amyloid nucleation score is -0.405 ± 0.76. With SSDGFCLVIVYVCPSWYMLV, the amyloid nucleation score entry was “inactive”. Next, SSDSKGFHGFGWFFWISLVT: “inactive”; SSEHFGCEASGVAER: “inactive”; SSFFRMLVLIVMRCQDTSNR: “inactive”. SSFSFYYDFIHS yielded an amyloid nucleation score of -0.433 ± 0.88.

Regarding SSGNMCFYPAPGYYWIATSK, the amyloid nucleation score result is “inactive”. Regarding SSIGCPYLSYDYCFPTMWIW, the amyloid nucleation score entry was “inactive”.

For the substance SSIGFLRSLGHQRPRSVSLP, the amyloid nucleation score entry was “inactive”.

Consider SSLLKFDFPVLPCHDLRLAL, for which the amyloid nucleation score entry is “inactive”. Next, SSLRR: “inactive”. In the case of SSLVL it was “inactive”. In turn, SSMWCMDRSLYTNYEYQRVL had an amyloid nucleation score of 0.054 ± 0.36. Regarding SSNRGFIIMFEFLASWGFLA, the amyloid nucleation score result is “inactive”.

In the case of SSSNLLKPSYFCKGSRGASQ, the amyloid nucleation score entry was “inactive”. In the case of SSSRMFSSLFSVCIWVDTII it was “inactive”; in that of SSSTGAFGDSGGR, “inactive”; in that of SSSVCRSLSPLILSHKRYYS, “inactive”.

As to SSTTE, the amyloid nucleation score entry is “inactive”. In the case of SSVRRYHKLIKRRDYVAFNV it was “inactive”; in that of SSWADYSKPYSGFCQGYRVY, “inactive”. Next, SSWYSRAPWLRVEMRRKWYM: 0.025 ± 0.61. In the case of STELYVNLDQVSPYSVRQLT it was “inactive”. Regarding STFSYSPVACWCFGGISQVG, the amyloid nucleation score was -0.797 ± 2.5. On to STHFRCELQRICF, for which the amyloid nucleation score entry was “inactive”. STIKFTGFVYFSN: the amyloid nucleation score entry was “inactive”. Next, STIVL: “inactive”; STLLRDEML: “inactive”. In the case of STPSTQDFVKQSLEARVLSS it was “inactive”; in that of STQCFDELMYA, “inactive”; in that of STQTGASRRENSPMGLGYNS, “inactive”. As for STQTLEKNDVWGFLHSYWCR, the amyloid nucleation score was determined as 0.128 ± 0.41. In turn, STSFNIRIFMYKFAYF gave an amyloid nucleation score of 1.31 ± 0.095.
